Laboratory results reported in article doi:10.1101/2023.01.16.523357.

Key:
[1] = target: ΔN15MsDps2 (MsDps2 with the first 15 N-terminal amino acids deleted) (Mycobacterium smegmatis); assay: negative-stain electron microscopy
[2] = target: Mycobacterium smegmatis Dps2 (MsDps2), wild type (Mycobacterium smegmatis); assay: SEC

Substance	stoichiometry N [1]	stoichiometry N [2]
ΔN15MsDps2 (MsDps2 with the first 15 N-terminal amino acids deleted) (domain or fragment)	12	
Mycobacterium smegmatis Dps2 (MsDps2), wild type (natural protein)		12
